According to patent US20230365648A1 (BITTERROOT BIO, published 2023):
Where a chain is given by its changes, count along the chain named.

How the values were obtained:
Test in all cases: BLI (Octet R8), construct captured on anti-human Fc sensor, CD47 in solution
mouse CD47 = target: T1, mouse CD47 (mouse, UniProt Q61735 19-140, limits assumed)
T1 construct: also called mouse CD47 protein
T1 sequence (looked up): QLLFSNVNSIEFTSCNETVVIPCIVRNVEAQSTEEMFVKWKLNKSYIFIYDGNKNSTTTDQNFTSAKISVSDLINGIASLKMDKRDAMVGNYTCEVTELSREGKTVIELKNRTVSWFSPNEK

rat CD47 = target: T2, rat CD47 (rat, UniProt P97829 19-140, limits assumed)
T2 construct: also called rat CD47 protein
T2 sequence (looked up): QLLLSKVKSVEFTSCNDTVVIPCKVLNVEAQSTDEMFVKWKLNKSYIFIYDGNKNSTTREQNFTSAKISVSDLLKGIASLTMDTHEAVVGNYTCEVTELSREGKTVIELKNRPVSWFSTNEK

rhCD47-his (human CD47) = target: T3, rhCD47-his (human CD47) (human, UniProt Q08722 19-139)
T3 construct: Soluble analyte in the Octet assay; not shown: his tag

Measured: binding result

T3 sequence (Q08722 19-139 limits assumed): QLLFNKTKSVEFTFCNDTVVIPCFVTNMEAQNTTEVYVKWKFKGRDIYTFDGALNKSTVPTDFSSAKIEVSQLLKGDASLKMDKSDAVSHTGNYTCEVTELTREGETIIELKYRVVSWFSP

B1: Construct 50 (SIRPα fusion polypeptide SEQ ID NO: 10 construct without the YTE mutation, i.e. with the wild type IgG4 Fc domain) (Fc fusion)
chain: EEELQIIQPDKSVLVAAGETATLRCTITSLFPVGPIQWFRGAGPGRVLIYNQRQGPFPRVTTVSDTTKRNNMDFSIRIGNITPADAGTYYCIKFRKGSPDDVEFKSGAGTELSVRAKPSAAAPPCPPCPAPEFLGGPSVFLFPPKPKDTLMISRTPEVTCVVVDVSQEDPEVQFNWYVDGVEVHNAKTKPREEQFNSTYRVVSVLTVLHQDWLNGKEYKCKVSNKGLPSSIEKTISKAKGQPREPQVYTLPPSQEEMTKNQVSLTCLVKGFYPSDIAVEWESNGQPENNYKTTPPVLDSDGSFFLYSRLTVDKSRWQEGNVFSCSVMHEALHNHYTQKSLSLSLGK
notes: It is described as the same construct as Construct 67 without the YTE mutation
binds: all assays above

B2: Construct 67 (SIRPα fusion polypeptide of SEQ ID NO: 10, SIRPα domain of SEQ ID NO: 2 and IgG4 Fc domain with a YTE mutation) (Fc fusion)
chain: B1 chain with M151Y, S153T, T155E
binds: all assays above
